# Paper PMC11901700, “A Sweet Almond Globulin Multifunctional Peptide: Identification, In Silico Screening, Restraint Mechanisms to Keap1 and ACE, and Antihypertensive and Ferrous Transport Efficiency” (Nutrients, 2025)
# pIC50: −log10 of the molar value. Where no end group is shown, it is not given here.
# Key:
# [1] = target: T1, ACE (from rabbit lungs) (Oryctolagus cuniculus, UniProt P12822); experiment: ACE inhibitory ability (hippuric acid method); format: biochemical; details: hippuric acid method, HHL substrate, absorbance at 228 nm; N = 3; read-out: ACE inhibitory activity (IC50)
# T1 construct: ACE (0.1 U, from rabbit lungs, purity > 99.7%, CAS: 9015-82-1) was obtained from Sigma-Aldrich; purchased Sigma-Aldrich (St. Louis, MO, USA); host or cells: rabbit lung tissue
# T1 sequence (P12822 34-1310): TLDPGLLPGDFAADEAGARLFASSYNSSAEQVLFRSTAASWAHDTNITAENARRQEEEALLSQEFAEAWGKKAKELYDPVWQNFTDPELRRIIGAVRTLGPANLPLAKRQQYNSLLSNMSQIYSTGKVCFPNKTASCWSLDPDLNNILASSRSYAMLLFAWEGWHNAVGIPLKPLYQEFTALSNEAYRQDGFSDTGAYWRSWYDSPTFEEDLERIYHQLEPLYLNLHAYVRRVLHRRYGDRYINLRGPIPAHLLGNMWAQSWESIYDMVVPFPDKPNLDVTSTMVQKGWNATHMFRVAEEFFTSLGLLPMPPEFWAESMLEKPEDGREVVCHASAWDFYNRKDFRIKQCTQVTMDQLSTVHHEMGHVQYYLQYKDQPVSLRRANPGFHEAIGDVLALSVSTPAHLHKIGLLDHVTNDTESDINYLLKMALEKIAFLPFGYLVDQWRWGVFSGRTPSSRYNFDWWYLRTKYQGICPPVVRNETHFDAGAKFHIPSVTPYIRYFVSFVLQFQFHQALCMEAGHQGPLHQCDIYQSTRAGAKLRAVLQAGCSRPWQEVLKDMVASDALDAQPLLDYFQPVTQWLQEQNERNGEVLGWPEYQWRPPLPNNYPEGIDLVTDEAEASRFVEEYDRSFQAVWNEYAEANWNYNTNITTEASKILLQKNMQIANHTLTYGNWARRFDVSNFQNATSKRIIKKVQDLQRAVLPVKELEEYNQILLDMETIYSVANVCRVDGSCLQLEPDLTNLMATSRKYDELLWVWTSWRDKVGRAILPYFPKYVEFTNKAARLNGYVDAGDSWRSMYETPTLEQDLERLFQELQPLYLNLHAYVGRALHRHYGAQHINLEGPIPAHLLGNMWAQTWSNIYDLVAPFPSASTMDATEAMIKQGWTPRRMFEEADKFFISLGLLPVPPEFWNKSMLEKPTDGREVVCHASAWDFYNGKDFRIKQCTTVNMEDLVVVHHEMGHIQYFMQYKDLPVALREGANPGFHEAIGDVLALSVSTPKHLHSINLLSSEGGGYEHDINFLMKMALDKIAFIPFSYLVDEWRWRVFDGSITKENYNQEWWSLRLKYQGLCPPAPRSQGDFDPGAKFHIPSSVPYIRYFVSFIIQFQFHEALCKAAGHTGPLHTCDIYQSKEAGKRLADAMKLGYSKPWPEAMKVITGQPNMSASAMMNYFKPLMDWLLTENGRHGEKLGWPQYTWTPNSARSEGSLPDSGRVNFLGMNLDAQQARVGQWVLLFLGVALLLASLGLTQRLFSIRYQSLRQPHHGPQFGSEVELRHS
# Source text: (§1) The hippuric acid method was used to measure the samples’ inhibitory ability towards ACE, following the same procedures as Zheng et al.. The absorbance at 228 nm was the hippuric acid content and represented ACE activity; therefore, the inhibitory ability of samples towards ACE was defined as the percentage of reduction in the absorption at 228 nm between the control and sample groups. Moreover, the ACE inhibitory kinetic of SAGH peptides was investigated by employing a Lineweaver–Burk plot with N-hippuryl-L-histidyl-L-leucine (HHL, 0.13–1.32 mmol/L) as the substrate.
# As described by Wu et al., the simulative gastric digestive fluid consisted of sodium chloride (0.18 mol/L), ultrapure water (180 mL), and 0.40 mg/mL of pepsin. The simulation intestinal digestive juice was composed of NaHCO3, ([…]), bile salt (3 g/100 mL), pancreatin (0.35 mg/mL), and 180 mL of ultrapure water. The antihypertensive and antioxidant SAGH peptides (5 mg/mL, 60 mL) were first hydrolyzed using 150 mL of simulative gastric fluid at 37 °C and 140 rpm for 90 min. The mixture was adjusted to pH 7.0, and 180 mL of the simulative intestinal hydrolysis fluid was added and stirred at 37 °C for 2 h. After boiling for 6 min, the mixture was cooled with running water to room temperature. The ACE inhibition capacity and antioxidant ability of the treated SAGH peptides were detected and compared to those of the […] SAGH peptides.
# [2] = target: T1, ACE (from rabbit lungs); experiment: ACE inhibitory kinetics (Lineweaver–Burk plot); format: biochemical; details: HHL 0.13–1.32 mmol/L as substrate, N = 3
# Source text: as §1
# [3] = Hydroxyl radical scavenging activity (β-deoxyribose oxidation method); format: physicochemical; details: at 100 μg/mL
# Description: As described by Wang et al. and Vásquez et al., the hydroxyl (·OH) and superoxide ( O2−· ) radicals’ scavenging activity was measured using the β-deoxyribose oxidation and pyrogallol auto-oxidation methods, respectively. The comparison was conducted when the samples were replaced by glutathione (0.1 mg/mL).
# [4] = ABTS+ quenching ability; format: physicochemical; details: at 100 μg/mL; absorbance at 734 nm; mean ± standard error
# Description: The ABTS^+ quenching ability was determined following the same procedures described by Vásquez et al.. The same system without the sample was the control, and glutathione (0.1 mg/mL) was the comparison. The percentage of reduction in absorbance at 734 nm was defined as the ABTS^+ scavenging ability of samples.
# [5] = system: Caco-2 cells; experiment: Iron transmembrane absorption across Caco-2 cell monolayers; format: in vitro ADME; details: chelate 320 μg/mL, p < 0.05
# Description: In a 24-well Transwell culture plate, Caco-2 cells (0.75 × 10^6 cells/cm^2) were cultivated using Dulbecco’s modified Eagle’s medium that contained fetal bovine serum (20 g/L), streptomycin (1 μg/μL), penicillin (1 μg/μL), and neomycin (1 μg/μL), and it was refreshed every 48 h. After 12–14 d of incubation at 5% CO2 and 37 °C, the transepithelial electrical resistance was more than 400 Ω·cm^2, and a monolayer Caco-2 cell mode was formed. Afterwards, the medium was removed, and Hank’s Balanced Salt Solution was added. After 30 min of cultivation at 5% CO2 and 37 °C, Hank’s Balanced Salt Solution was removed from the apical side, and SAGH peptide–ferrous chelates (320 μg/mL) were added and then cultivated at 5% CO2 and 37 °C for 150 min. Every 30 min, the ferrous amount of the basolateral-side cultivate solution was measured using the o-phenanthroline method.
substance,measurement,setting,value
PMYGGGMV–ferrous chelate: chelate prepared by reacting the peptide with FeCl2 at pH 6.5 (also: ferrous iron chelate (reaction with FeCl2)),pIC50,[1],3.94
same,ACE inhibition mode,[2],increased the Km value of the Michaelis–Menten kinetic curves but did not change the Vmax
same,·OH Scavenging Activity (%) Before Gastrointestinal Digestion,[3],57.69 ± 0.07 d %
same,·OH Scavenging Activity (%) Before Gastrointestinal Digestion,[3]; listed as PMYGGGMV–ferrous chelates,60.04%
same,ABTS+ Scavenging Activity (%) Before Gastrointestinal Digestion,[4],35.27 ± 2.45 d %
same,ability to improve ferrous transmembrane absorption,"[5]; Caco-2 monolayer, Transwell, TEER > 400 Ω·cm2, apical to basolateral, comparators 0.3 mg/mL, HBSS, 37 °C, 5% CO2, 150 min, o-phenanthroline every 30 min, N = 3",greater than that of ferrous chloride
same,iron transport across the Caco-2 monolayer compared with ferrous lactate,"[5]; during 120–150 min, apical to basolateral, ferrous lactate 0.3 mg/mL",better
